Source: article PMC10397247
Read-outs that look alike come from different tables or passages of the source.

Columns and labels:
Assay in all cases: two-hybrid library CCNG1;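 note: natural log of median RNA to DNA barcode read ratio; higher means stronger binding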
4H3606-bN = target: T1, 4H3606-bN
T1 chain: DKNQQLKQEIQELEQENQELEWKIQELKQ

4H3782-bN = target: T2, 4H3782-bN
T2 chain: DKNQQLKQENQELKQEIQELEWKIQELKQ

4H607-bN = target: T3, 4H607-bN
T3 chain: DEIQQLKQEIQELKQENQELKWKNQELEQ

4H687-bN = target: T4, 4H687-bN
T4 chain: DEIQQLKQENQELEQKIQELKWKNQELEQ

4H797-bN = target: T5, 4H797-bN
T5 chain: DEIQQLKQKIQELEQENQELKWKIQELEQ

4H883-bN = target: T6, 4H883-bN
T6 chain: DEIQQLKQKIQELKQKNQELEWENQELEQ

4H370-bN = target: T7, 4H370-bN
T7 chain: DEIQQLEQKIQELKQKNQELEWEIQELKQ

4H918-bN = target: T8, 4H918-bN
T8 chain: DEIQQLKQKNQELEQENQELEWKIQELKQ

4H462-bN = target: T9, 4H462-bN
T9 chain: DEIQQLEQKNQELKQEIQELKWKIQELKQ

4H3843-bN = target: T10, 4H3843-bN
T10 chain: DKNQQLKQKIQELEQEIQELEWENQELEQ

4H72-bN = target: T11, 4H72-bN
T11 chain: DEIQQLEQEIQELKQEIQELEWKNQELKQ

4H953-bN = target: T12, 4H953-bN
T12 chain: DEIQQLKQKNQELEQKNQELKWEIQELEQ

4H4001-bN = target: T13, 4H4001-bN
T13 chain: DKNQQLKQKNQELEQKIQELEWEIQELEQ

4H568-bN = target: T14, 4H568-bN
T14 chain: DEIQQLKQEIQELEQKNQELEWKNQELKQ

4H967-bN = target: T15, 4H967-bN
T15 chain: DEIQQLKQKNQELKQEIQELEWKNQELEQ

4H3354-bN = target: T16, 4H3354-bN
T16 chain: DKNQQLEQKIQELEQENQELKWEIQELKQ

4H454-bN = target: T17, 4H454-bN
T17 chain: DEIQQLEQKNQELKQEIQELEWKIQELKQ

4H3427-bN = target: T18, 4H3427-bN
T18 chain: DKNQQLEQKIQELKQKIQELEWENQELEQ

4H908-bN = target: T19, 4H908-bN
T19 chain: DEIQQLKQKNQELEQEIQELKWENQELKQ

4H3855-bN = target: T20, 4H3855-bN
T20 chain: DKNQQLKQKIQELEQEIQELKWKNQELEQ

4H338-bN = target: T21, 4H338-bN
T21 chain: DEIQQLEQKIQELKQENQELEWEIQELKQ

4H754-bN = target: T22, 4H754-bN
T22 chain: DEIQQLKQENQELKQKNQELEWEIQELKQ

4H331-bN = target: T23, 4H331-bN
T23 chain: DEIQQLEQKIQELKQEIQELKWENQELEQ

4H717-bN = target: T24, 4H717-bN
T24 chain: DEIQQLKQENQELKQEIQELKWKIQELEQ

4H3057-bA = target: T25, 4H3057-bA
T25 chain: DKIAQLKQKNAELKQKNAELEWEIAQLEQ

4H2839-bA = target: T26, 4H2839-bA
T26 chain: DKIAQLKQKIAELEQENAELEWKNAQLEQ

4H477-bA = target: T27, 4H477-bA
T27 chain: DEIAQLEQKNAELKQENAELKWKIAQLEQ

4H2717-bA = target: T28, 4H2717-bA
T28 chain: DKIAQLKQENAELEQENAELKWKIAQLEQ

4H492-bA = target: T29, 4H492-bA
T29 chain: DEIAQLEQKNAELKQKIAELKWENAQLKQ

4H741-bA = target: T30, 4H741-bA
T30 chain: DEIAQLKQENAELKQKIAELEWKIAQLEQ

4H348-bA = target: T31, 4H348-bA
T31 chain: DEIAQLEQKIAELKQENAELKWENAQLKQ

4H3277-bA = target: T32, 4H3277-bA
T32 chain: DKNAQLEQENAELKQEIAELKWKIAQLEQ

4H2915-bA = target: T33, 4H2915-bA
T33 chain: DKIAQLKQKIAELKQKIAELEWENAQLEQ

4H40-bA = target: T34, 4H40-bA
T34 chain: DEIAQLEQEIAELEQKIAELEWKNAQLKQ

4H568-bA = target: T35, 4H568-bA
T35 chain: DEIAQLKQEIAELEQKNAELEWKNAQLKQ

O6-bA = target: T36, O6-bA
T36 chain: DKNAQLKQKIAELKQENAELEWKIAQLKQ

4H967-bA = target: T37, 4H967-bA
T37 chain: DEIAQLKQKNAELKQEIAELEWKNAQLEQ

4H462-bA = target: T38, 4H462-bA
T38 chain: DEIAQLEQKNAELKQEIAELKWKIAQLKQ

4H72-bA = target: T39, 4H72-bA
T39 chain: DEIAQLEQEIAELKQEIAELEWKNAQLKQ

4H918-bA = target: T40, 4H918-bA
T40 chain: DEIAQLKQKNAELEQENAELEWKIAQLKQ

4H797-bA = target: T41, 4H797-bA
T41 chain: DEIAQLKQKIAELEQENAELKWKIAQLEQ

4H883-bA = target: T42, 4H883-bA
T42 chain: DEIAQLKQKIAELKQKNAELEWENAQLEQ

4H906-bN = target: T43, 4H906-bN
T43 chain: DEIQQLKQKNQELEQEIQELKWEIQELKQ

4H607-bA = target: T44, 4H607-bA
T44 chain: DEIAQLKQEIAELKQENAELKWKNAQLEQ

4H570-bA = target: T45, 4H570-bA
T45 chain: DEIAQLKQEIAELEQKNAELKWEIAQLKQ

4H953-bA = target: T46, 4H953-bA
T46 chain: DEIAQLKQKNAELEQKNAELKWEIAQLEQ

4H687-bA = target: T47, 4H687-bA
T47 chain: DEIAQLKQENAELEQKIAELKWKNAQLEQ

4H730-bA = target: T48, 4H730-bA
T48 chain: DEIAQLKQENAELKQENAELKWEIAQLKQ

4H932-bA = target: T49, 4H932-bA
T49 chain: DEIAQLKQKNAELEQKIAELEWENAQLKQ

4H949-bA = target: T50, 4H949-bA
T50 chain: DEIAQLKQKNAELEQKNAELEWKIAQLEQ

4H56-bA = target: T51, 4H56-bA
T51 chain: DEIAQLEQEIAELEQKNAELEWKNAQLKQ

4H349-bA = target: T52, 4H349-bA
T52 chain: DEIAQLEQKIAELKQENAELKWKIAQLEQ

P8A = target: T53, P8A
T53 chain: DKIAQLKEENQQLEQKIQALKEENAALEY

4H3364-bA = target: T54, 4H3364-bA
T54 chain: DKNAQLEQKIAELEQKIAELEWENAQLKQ

4H796-bA = target: T55, 4H796-bA
T55 chain: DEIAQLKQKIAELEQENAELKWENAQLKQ

4H3381-bA = target: T56, 4H3381-bA
T56 chain: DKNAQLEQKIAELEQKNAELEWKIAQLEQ

4H319-bA = target: T57, 4H319-bA
T57 chain: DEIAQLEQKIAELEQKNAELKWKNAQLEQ

O5-bS = target: T58, O5-bS
T58 chain: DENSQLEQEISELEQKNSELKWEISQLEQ

O8-bS = target: T59, O8-bS
T59 chain: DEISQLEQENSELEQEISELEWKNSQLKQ

O9-bS = target: T60, O9-bS
T60 chain: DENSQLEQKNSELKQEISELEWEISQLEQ

O7-bS = target: T61, O7-bS
T61 chain: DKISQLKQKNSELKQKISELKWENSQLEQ

O6-bS = target: T62, O6-bS
T62 chain: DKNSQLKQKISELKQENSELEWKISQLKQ

P9A = target: T63, P9A
T63 chain: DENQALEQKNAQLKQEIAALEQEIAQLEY

B1: 4H3606-bN (peptide)
chain: DKNQQLKQEIQELEQENQELEWKIQELKQ
Work on B1 yielded an interaction score (4H3606-bN; mean of both orientations) of -0.385, an interaction score (4H3782-bN) of -0.77 and an interaction score (4H607-bN) of 0.0432. The interaction score (4H687-bN) was 0.128, the interaction score (4H797-bN) was -0.386 and the interaction score (4H883-bN) was -1.5. The interaction score (4H370-bN) was -0.0845, the interaction score (4H918-bN) was -0.149 and the interaction score (4H462-bN) was -0.288. It also gave an interaction score (4H3843-bN) of -0.0433, an interaction score (4H72-bN) of -0.312 and an interaction score (4H953-bN) of -0.614. For the same binder, the interaction score (4H4001-bN) was -0.219, the interaction score (4H568-bN) was 1.07 and the interaction score (4H967-bN) was -1.43.

B2: 4H331-bN (peptide)
chain: DEIQQLEQKIQELKQEIQELKWENQELEQ
Work on B2 yielded an interaction score (4H3606-bN) of -0.132, an interaction score (4H3782-bN) of -0.492 and an interaction score (4H607-bN) of -2.2. The interaction score (4H687-bN) was -0.624, the interaction score (4H3354-bN) was -0.055 and the interaction score (4H454-bN) was -0.999. For the same binder, the interaction score (4H3427-bN) was 1.12, the interaction score (4H797-bN) was -0.866 and the interaction score (4H883-bN) was -0.0918. For the same binder, the interaction score (4H370-bN) was 0.508, the interaction score (4H908-bN) was -1.35 and the interaction score (4H3855-bN) was 1.17. It also gave an interaction score (4H338-bN) of -0.434, an interaction score (4H918-bN) of -0.476 and an interaction score (4H754-bN) of -0.762. The interaction score (4H462-bN) was -0.381, the interaction score (4H3843-bN) was -0.476 and the interaction score (4H72-bN) was 0.918. For the same binder, the interaction score (4H953-bN) was -0.578, the interaction score (4H4001-bN) was 0.329 and the interaction score (4H568-bN) was -1.41. For the same binder, the interaction score (4H331-bN) was -0.214, the interaction score (4H717-bN) was -0.661 and the interaction score (4H967-bN) was -0.995.

B3: 4H2717-bA (peptide)
chain: DKIAQLKQENAELEQENAELKWKIAQLEQ
B3 was tested, and the interaction score (4H3057-bA) was 1.23, the interaction score (4H2839-bA) was -0.857 and the interaction score (4H477-bA) was 0.776. For the same binder, the interaction score (4H2717-bA) was 1.02, the interaction score (4H492-bA) was -1.39 and the interaction score (4H741-bA) was -1.48. It also gave an interaction score (4H348-bA) of -1.06, an interaction score (4H3277-bA) of -0.874 and an interaction score (4H2915-bA) of -0.721. The interaction score (4H40-bA) was -1.55.

B4: 4H462-bA (peptide)
chain: DEIAQLEQKNAELKQEIAELKWKIAQLKQ
For B4, the interaction score (4H568-bA) was -0.962, the interaction score (O6-bA) was 1.7 and the interaction score (4H967-bA) was -0.0789. It also gave an interaction score (4H462-bA) of 1.24, an interaction score (4H72-bA) of 0.312 and an interaction score (4H918-bA) of -1.06. For the same binder, the interaction score (4H797-bA) was -0.251, the interaction score (4H883-bA) was -1.19 and the interaction score (4H906-bN) was 0.676. For the same binder, the interaction score (4H607-bA) was -0.0392, the interaction score (4H570-bA) was -2.87 and the interaction score (4H953-bA) was -0.872. It also gave an interaction score (4H687-bA) of 0.993.

B5: 4H3364-bA (peptide)
chain: DKNAQLEQKIAELEQKIAELEWENAQLKQ
B5 gave an interaction score (4H730-bA) of 0.124, an interaction score (4H932-bA) of -0.586 and an interaction score (4H949-bA) of -1.22. The interaction score (4H56-bA) was 0.349, the interaction score (4H349-bA) was -1.53 and the interaction score (P8A) was -0.26. The interaction score (4H3364-bA) was 1.01, the interaction score (4H796-bA) was 0.137 and the interaction score (4H3381-bA) was -0.647.

B6: 4H2839-bA (peptide)
chain: DKIAQLKQKIAELEQENAELEWKNAQLEQ
With B6 the interaction score (4H3057-bA) was -0.0141, the interaction score (4H2839-bA) was 0.104 and the interaction score (4H477-bA) was -0.768. The interaction score (4H492-bA) was -0.582, the interaction score (4H741-bA) was -0.816 and the interaction score (4H348-bA) was -0.533. The interaction score (4H3277-bA) was -0.969, the interaction score (4H2915-bA) was -0.223 and the interaction score (4H40-bA) was 1.35. It also gave an interaction score (4H319-bA) of 1.61.

B7: O5-bS (peptide)
chain: DENSQLEQEISELEQKNSELKWEISQLEQ
For B7, the interaction score (O5-bS) was -1.98, the interaction score (O8-bS) was -1.34 and the interaction score (O9-bS) was -0.729. It also gave an interaction score (O7-bS) of -1.98 and an interaction score (O6-bS) of 2.08.

B8: P8A (peptide)
chain: DKIAQLKEENQQLEQKIQALKEENAALEY
B8 showed an interaction score (P9A) of -1.56 and an interaction score (P8A) of -1.27.
